Assay [1] addresses T1, rat IL-23R extracellular domain (ECD) protein (rat).
T1 construct: also called rat IL-23R ECD; F1LX96 amino acids 24-354
T1 chain: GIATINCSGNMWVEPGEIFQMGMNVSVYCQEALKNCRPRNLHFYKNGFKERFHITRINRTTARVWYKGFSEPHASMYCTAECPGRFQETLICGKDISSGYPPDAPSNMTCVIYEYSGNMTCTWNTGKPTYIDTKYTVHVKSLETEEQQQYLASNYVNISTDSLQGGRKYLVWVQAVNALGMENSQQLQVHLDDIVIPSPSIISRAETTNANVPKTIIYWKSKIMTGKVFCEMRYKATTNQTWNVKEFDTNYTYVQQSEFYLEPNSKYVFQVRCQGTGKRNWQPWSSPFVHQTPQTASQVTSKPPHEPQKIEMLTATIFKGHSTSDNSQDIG
Description: SPR Biacore 8K, purified. As to the method: (§1) Affinity by SPR using Biacore 8K. Affinity measurements using Surface Plasmon Resonance (SPR) were performed using a Biacore 8K system (Cytiva). […] Approximately 9000-10000 RU (response units) of mAbs were immobilized. The kinetic experiments were performed at 25° C. in running buffer 1× of (HBS-P+ Buffer 10× (Cytiva #BR100671)+100 μg/ml BSA). To perform kinetic experiments, approximately 150 RU of mAbs were captured followed by injections of human IL-23R or rat IL-23R at concentrations ranging from 0.8 nM to 500 nM (in a 5-fold serial dilution). The association phase was monitored for 3 minutes at 50 μL/min, then followed by 30 minutes of buffer flow (dissociation phase). […] The collected data were processed using Biacore insight Evaluation software (Version 3.0.12.15655). The kinetic analysis of the data was performed using a Langmuir 1:1 binding model. The result for each mAb was reported in the format of Ka (On-rate), Kd (Off-rate) and KD (equilibrium dissociation constant).

The target in assay [2] is T2, Recombinant human IL-23 receptor (IL-23R) extracellular domain (ECD) protein (human, UniProt Q5VWK5 24-355).
T2 construct: also called human IL-23R ECD; hu IL-23R ECD
T2 sequence: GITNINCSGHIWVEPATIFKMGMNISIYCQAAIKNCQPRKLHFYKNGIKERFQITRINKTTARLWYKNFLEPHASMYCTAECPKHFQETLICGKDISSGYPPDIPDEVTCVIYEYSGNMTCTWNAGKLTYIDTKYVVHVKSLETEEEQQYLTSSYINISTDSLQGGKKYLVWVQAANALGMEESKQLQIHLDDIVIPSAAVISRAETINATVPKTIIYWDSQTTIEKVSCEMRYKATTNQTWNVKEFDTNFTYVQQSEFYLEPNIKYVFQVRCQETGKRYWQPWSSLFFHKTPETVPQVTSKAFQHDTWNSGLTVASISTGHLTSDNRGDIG
The experiment in a line: SPR Biacore 8K, purified, analysis 2. As to the method: as §1
In general terms: Surface plasmon resonance follows binding to a sensor surface in real time, without labels.

For assay [3], the target named is T2, Recombinant human IL-23 receptor …. Description: SPR Biacore 8K, supernatant, analysis 1. The method, boiled down: (§2)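 mAbs captured (~150 RU) on Biacore 8K; human or rat IL-23R ECD injected at 0.8–500 nM (5-fold series) at 25 °C in HBS-P+ with 100 μg/ml BSA. Association 3 min at 50 μL/min, dissociation 30 min. Ka, Kd and KD from Langmuir 1:1 fit.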
Assay [4] shares this target. Description: SPR Biacore 8K, supernatant, analysis 2. The method, boiled down: as §2
Assay [5] shares this target. The experiment in a line: SPR ProteOn, purified. As to the method:
Affinity by SPR using ProteOn. Affinity measurements using Surface Plasmon Resonance (SPR) were performed using a ProteOn XPR36 system (BioRad). […] Approximately 6000 RU (response units) of mAbs were immobilized. The kinetic experiments were performed at 25° C. in running buffer (DPBS+0.01% P20+100 μg/ml BSA). […] The association phase was monitored for 3 minutes at 50 μL/min, then followed by 10 minutes of buffer flow (dissociation phase). The chip surface was regenerated with two 18 second pulses of 100 mM H3PO4 (Sigma, Cat #7961) at 100 μL/min. The collected data were processed using ProteOn Manager software. First, the data was corrected for background using inter-spots. Then, double reference subtraction of the data was performed by using the buffer injection for analyte injections. The kinetic analysis of the data was performed using a Langmuir 1:1 binding model. The result for each mAb was reported in the format of Ka (On-rate), Kd (Off-rate) and KD (equilibrium dissociation constant).

For assay [6] the target is unchanged. Description: SPR Biacore 8K, purified, analysis 1. On the procedure:
as §1

This is an account of results in patent US20250179196A1 (Janssen / Centocor, published 2025).

B1: I23RB47 (antibody, mouse IgG2a, kappa, V domains shown)
VH: QVQLKESGPGLVAPSQSLSITCTVSGFSLTNYDIHWVRQSPGKGLEWLGVIWSDGRTDYKGAFISRLSISKDNSKSQVFFKMNSLQADDTAIYYCARNNYYRYGRNTMDYWGQGTSVTVSS
VL: DIVLTQSPASQSASLGESVTITCLASQTIGSWLAWYQQKPGKSPQLLIYAATRLADGVPSRFSGSGSGTKFSFKISSLQAEDFVFYYCHQLYSIPLTFGGGTKLEMKR
notes: mouse immunization; mouse IgG2a/kappa
In the case of B1, in assay [1], the binding result is listed as “no binding (tested: 500 nM)”. In assay [2], the dissociation constant (Kd) (commonly the free concentration of one partner at which half of the binding sites on the other are occupied at equilibrium, for simple one-to-one binding) was 0.114 nM; the koff (as a rule, a measure of how fast the partners let go of each other) stood at 5.17e-05 s⁻¹; the kon – broadly, the second-order rate constant of association – came out at 453000 M⁻¹ s⁻¹. In assay [3], the Kd is below 0.051 nM, the koff was below 2.89e-05 s⁻¹ and the kon amounted to 566000 M⁻¹ s⁻¹. In addition, in assay [4], the Kd was determined as 0.119 nM, the off-rate (koff) is 5.32e-05 s⁻¹ and the on-rate (kon) amounted to 445000 M⁻¹ s⁻¹.

B2: I23RB7 (antibody, mouse IgG2a, kappa, V domains shown)
VH: QIQLVQSGPELKKPGETVKISCKASGYTFTTYGMSWVKQAPGKGLKWMGWINTYSGVPTYADDFKGRFAFSLETSASTAYLQINNLKNEDTATYYCARRDRYGYVAGAFAYWGQGTLVTVSS
VL: QIVLTQSPAIMSASPGEKVTMTCSASSSVSYMYWYQQKPGSSPRLLIYDTSNLASGVPVRFSGSGSGTSYSLTISRMEAEDAATYYCQQWSSYPWTFGGGTKLEIKR
notes: phage display (mouse library); mouse antibody, mouse IgG2a/kappa
On to B2, for which the dissociation constant Kd in assay [5] came out at 0.39 nM; in assay [1], 524 nM; in assay [2], 1.23 nM; in assay [4] it was 1.23 nM. For the same molecule, the dissociation rate constant (koff) in assay [5] amounted to 0.000226 s⁻¹; in assay [1] it was 0.0127 s⁻¹; in assay [2], 0.000246 s⁻¹; in assay [4], 0.000247 s⁻¹. For the same molecule, the kon stood at 581000 M⁻¹ s⁻¹ in assay [5], 24200 M⁻¹ s⁻¹ in assay [1], 199000 M⁻¹ s⁻¹ in assay [2] and 200000 M⁻¹ s⁻¹ in assay [4].

B3: I23RB1 (antibody, mouse IgG2a, kappa, V domains shown)
VH: QVQLVQSGAEVKKPGSSVKVSCKASGGTFKNYAISWVRQAPGQGLEWMGWIRPIFGTAYYAQKFQGRVTITADESTSTAYMELSSLRSEDTAVYYCARDSGSRYAGRYAFDYWGQGTLVTVSS
VL: EIVLTQSPATLSLSPGERATLSCRASQSVSSYLAWYQQKPGQAPRLLIYDASNRATGIPARFSGSGSGTDFTLTISSLEPEDFAVYYCQQRSNWPLTFGQGTKVEIKR
notes: phage display; human V regions, mouse IgG2a/kappa constant regions
On to B3, for which, in assay [5], the Kd turned out to be 0.667 nM, the koff is 0.00229 s⁻¹ and the kon turned out to be 3.45e+06 M⁻¹ s⁻¹. For the same molecule, the binding result in assay [1] was “no binding (tested: 500 nM)”. For the same molecule, in assay [6], the equilibrium dissociation constant (Kd) came to 2.8 nM, the koff came to 0.00111 s⁻¹ and the kon came out at 399000 M⁻¹ s⁻¹. Besides, in assay [4], the dissociation constant Kd worked out at 2.62 nM, the off-rate (koff) was 0.000982 s⁻¹ and the kon turned out to be 376000 M⁻¹ s⁻¹.

B4: I23RB33 (antibody, mouse IgG2a, kappa, V domains shown)
VH: EVQLQQSGAELVKPGASVKLSCTASGFNIRDIYIHWVKQRPEQGLEWIGRIDPANGHSIYAAKFQGKATITADTSLNIAYMQLSSLTSGDTAVYYCARGSDNDYGRVLAYWGLGTSVTVSS
VL: DIVLTQSPAIMSASPGEKVTMTCRASSSVRSSYLHWYQQKSGASPKLWIYSTSNLASGVPARFSGSGSGTSYSLTITSVEAEDAATYYCQQYTGNPIFTFGSGTKLELKR
notes: as for B1
Consider B4, for which the binding result in assay [1] is “no binding (tested: 500 nM)”. The Kd in assay [6] came out at 0.162 nM; in assay [2], 0.216 nM; in assay [4], 0.218 nM. Besides, the koff in assay [6] is 0.000155 s⁻¹; in assay [2], 0.000149 s⁻¹; in assay [4], 0.000146 s⁻¹. The association rate constant (kon) in assay [6] is 957000 M⁻¹ s⁻¹; in assay [2], 691000 M⁻¹ s⁻¹; in assay [4], 672000 M⁻¹ s⁻¹.

B5: I23RB35 (antibody, mouse IgG2a, kappa, V domains shown)
VH: DVQLQESGPGLVKPSQSLSLTCSVTGYSITSGHNWNWIRQFPGNKLEWLGYISYDGSNNYDPSLKNRISITRDTSKNQFFLKLNSVTTEDTATYYCARGGGYFGNSYRVFASWGQGTTVTVSS
VL: DIVLTQSPASLAVSLGQRATISCRASESVDSYGNSFMHWYQQKPGQPPKLLIYRASNLESEIPARFSGRGSGTDFTLTINPVEADDVATYYCQQSNADPYTFGGGTKLEIKR
notes: as for B1
With B5, the binding result in assay [1] is recorded as “no binding (tested: 500 nM)”. For the same molecule, in assay [6], the Kd was below 0.0527 nM, the dissociation rate constant (koff) is below 2.89e-05 s⁻¹ and the on-rate (kon) is 549000 M⁻¹ s⁻¹. Also, in assay [2], the Kd is below 0.0687 nM, the koff was below 2.89e-05 s⁻¹ and the kon was determined as 421000 M⁻¹ s⁻¹. Moreover, in assay [4], the dissociation constant (Kd) is below 0.0777 nM, the koff was below 2.89e-05 s⁻¹ and the kon worked out at 372000 M⁻¹ s⁻¹.

B6: I23RB32 (antibody, mouse IgG2a, kappa, V domains shown)
VH: EFQLQQSGPELVKPGASVKLSCKASGYTFTDYALHWVKQSPGQGLEWIGWIYPGGGNTYYNDKFKGKATMTADKSSSTAYMQLSSLTSEDSAVYFCARGRLRRDYPMDYWGQGTSVTVSS
VL: DIVMTQSPSSLTVTAGEKVTMSCKSSQSLLNSGNQKNYLTWYQQKPGQPPKLLIYWASTRESGVPDRFTGSGSGTDFTLTISSVQAEDLAVYYCQNDYTYPLTFGSGTKLEIKR
notes: as for B1
In the case of B6, in assay [1], the binding result is “no binding (tested: 500 nM)”. Also, in assay [6], the dissociation constant (Kd) amounted to 0.332 nM, the off-rate constant (koff) turned out to be 0.000182 s⁻¹ and the kon was 550000 M⁻¹ s⁻¹. Moreover, in assay [2], the dissociation constant Kd came to 0.34 nM, the koff came out at 0.000172 s⁻¹ and the kon was determined as 506000 M⁻¹ s⁻¹.
